Measured values: PMC10462243 (Research Square, 2023)

B1: Plk4 CPB(581–808), purified (domain or fragment, UniProt O00444 581-808, looked up)
chain: GYQNRTLRSITSPLVAHRLKPIRQKTKKAVVSILDSEEVCVELVKEYASQEYVKEVLQISSDGNTITIYYPNGGRGFPLADRPPSPTDNISRYSFDNLPEKYWRKYQYASRFVQLVRSKSPKITYFTRYAKCILMENSPGADFEVWFYDGVKIHKTEDFIQVIEKTGKSYTLKSESEVNSLKEEIKMYMDHANEGHRICLALESIISEEERKTRSAPFFPIIIGRKPG
notes: Plk4 cryptic polo-box, residues 581–808; Two copies for each Vpr•VprBP in the SEC complex; The construct has a TEV site
B2: Vpr (insect cells, co-expressed with VprBP WD40-AR) (natural protein)
chain: MEQAPEDQGPQREPYNEWTLELLEELKSEAVRHFPRIWLHNLGQHIYETYGDTWAGVEAIIRILQQLLFIHFRIGCRHSRIGVTRQRRARNGASRS
notes: HIV-1 Vpr ORF, expressed on its own from a p10 promoter in the dual construct; also called 11-kDa Vpr; source: Tni-FNL insect cells, co-expressed with His-MBP-TEV-VprBP, purified (HisTrap, SEC)

Key:
Experiment in all cases: SEC; purified Vpr, VprBP(1057–1507), Plk4 CPB(581–808) and DDB1; HisTrap eluate of VprBP and Vpr digested with TEV, mixed with Plk4 CPB; SEC in 20 mM Tris-HCl pH 7.5, 100 mM NaCl, 10% glycerol; stoichiometry estimated from Coomassie-stained protein intensity
[1] = target: T1, Vpr•VprBP WD40-AR complex ( | HIV-1 (pNL4–3), UniProt Q9Y4B6;P12520); conditions: both partners purified
T1 construct: VprBP (DCAF1) WD40 domain and acidic region; HIV-1 Vpr ORF; Chains as m38 and m37, formed by co-expression before Plk4 CPB was added; also called VprBP (WD40-AR)•Vpr complex; source: Tni-FNL insect cells, co-expressed, purified (HisTrap, TEV); not shown: His, N-terminal, cleaved; MBP, N-terminal, cleaved; copies: 1 + 1
T1 sequence (Q9Y4B6 1057-1507, one chain of several): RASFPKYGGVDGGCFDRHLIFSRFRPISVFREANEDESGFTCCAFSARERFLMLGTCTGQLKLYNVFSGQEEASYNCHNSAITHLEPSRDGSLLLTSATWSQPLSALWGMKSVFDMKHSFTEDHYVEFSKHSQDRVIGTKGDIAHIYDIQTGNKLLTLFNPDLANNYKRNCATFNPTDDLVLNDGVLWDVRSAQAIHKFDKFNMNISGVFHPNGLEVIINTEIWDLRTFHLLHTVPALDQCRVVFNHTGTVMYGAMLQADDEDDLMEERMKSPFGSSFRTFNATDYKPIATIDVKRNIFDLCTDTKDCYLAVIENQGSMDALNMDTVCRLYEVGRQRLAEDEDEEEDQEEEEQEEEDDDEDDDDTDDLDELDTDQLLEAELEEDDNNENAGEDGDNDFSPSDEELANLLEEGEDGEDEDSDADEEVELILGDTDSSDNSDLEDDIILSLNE

[2] = target: the molecule itself
[3] = target: B1; conditions: both partners purified

## B1
[1]
  stoichiometry N: ~2
[2]
  binding result: binds

## B2
[3]
  binding result: binds
